Test results published in patent publication US20210284729A1.
Where “and” joins values, the source holds several entries; their conditions need not be identical. Equal values may be shown once.

Biological target: 4-1BB (CD137) on T cells (human) (UniProt Q07011)
Experiment: cell-based or functional assay

Chain of 4-1BB (CD137) on T cells (human) (Q07011 24-255): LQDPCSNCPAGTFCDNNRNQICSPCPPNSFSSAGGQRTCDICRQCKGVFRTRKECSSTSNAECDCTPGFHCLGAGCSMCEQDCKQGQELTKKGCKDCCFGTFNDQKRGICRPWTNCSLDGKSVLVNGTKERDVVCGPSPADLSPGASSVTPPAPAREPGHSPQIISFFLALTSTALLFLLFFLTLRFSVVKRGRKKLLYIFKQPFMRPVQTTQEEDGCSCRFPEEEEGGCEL

co-stimulatory 4-1BB ligand (CD137L) expressed on the surface of gene-modified hMSCs (SCP-1) (from UniProt P41273 1-254)
IFN-gamma secretion by T cells (ELISA, 24 h): > 10 fold
T cell expansion (T cell number at day 6 to day 0): 2 fold and 3 fold
TNF-alpha secretion by T cells (ELISA, 24 h): < 8 fold
expansion of autologous AML patient T cells after 96 h of co-culture: 3 fold
